Test results reported in patent EP1897948A1 (ZymoGenetics, Inc., dated 2008).

Target: the molecule itself
Assay: western blot of BHK media, reducing (29 kDa) against non-reducing (49 kDa)

B1: Human Ztgfβ-9 protein (ligand)
chain: AGAPRAGRRPARPRGCADRPEELLEQLYGRLAAGVLSAFHHTLQLGPREQARNASCPAGGRPADRRFRPPTNLRSVSPWAYRISYDPARYPRYLPEAYCLCRGCLTGLFGEEDVRFRSAPVYMPTVVLRRTPACAGGRSVYTEAYVTIPVGCTCVPEPEKDADSINSSIDKQGAKLLLGPNDAPAGP
notes: Expressed in BHK cells without a tag and secreted into the medium; also called transforming growth factor beta-9
binding result: binds
